The results in this text go back to publication PMC3135787.

The term Km denotes the substrate concentration at which the rate is half of its maximum. One may read the kcat as the number of substrate molecules converted per active site and unit of time at saturation. In general, kcat/Km refers to the second-order rate constant that governs catalysis at low substrate concentration.

Substrate in data set [1]: Nc1nc2c(ncn2[C@@H]2O[C@H](COP(=O)(O)O)[C@@H](O)[C@H]2O)c(=O)[nH]1
Put plainly: hGUK1-mediated phosphorylation, coupled spectrophotometric assay. The data set is classed as biochemical, human. Particulars: other: hGUK1, 37°C.

Substrate in the data set “Hint1 activity assay”: COc1nc(N)nc2c1ncn2[C@@H]1O[C@H](COP(=O)(O)N[C@@H](C)C(=O)O)[C@@H](O)[C@@]1(C)F
Put plainly: Hint1 activity assay. The data set is classed as biochemical. As to conditions: other: Hint1, 37 °C, pH 7.2.

B1: Human guanylate kinase (hGUK1) (Homo sapiens) (protein)
chain: MSGPRPVVLSGPSGAGKSTLLKRLLQEHSGIFGFSVSHTTRNPRPGEENGKDYYFVTREVMQRDIAAGDFIEHAEFSGNLYGTSKVAVQAVQAMNRICVLDVDLQGVRNIKATDLRPIYISVQPPSLHVLEQRLRQRNTETEESLVKRLAAAQADMESSKEPGLFDVVIINDSLDQAYAELKEALSEEIKKAQRTGA
B1: in data set [1], the Michaelis-Menten constant (Km) is 19.1 ± 4.5 µM, the kcat came out at 74.7 ± 17.6 s⁻¹ and the kcat/Km was found to be 3.9e+06 M⁻¹ s⁻¹.

B2: Hint1 (Homo sapiens) (protein)
chain: MADEIAKAQVARPGGDTIFGKIIRKEIPAKIIFEDDRCLAFHDISPQAPTHFLVIPKKHISQISVAEDDDESLLGHLMIVGKKCAADLGLNKGYRMVVNEGSDGGQSVYHVHLHVLGGRQMHWPPG
Regarding B2, in the data set “Hint1 activity assay”, the Km was determined as 445 ± 182 µM and the kcat was 0.0573 s⁻¹.
